Assay [1] concerns the target T1, mPD-1-Fc (mouse; human, UniProt Q02242 25-167, limits assumed).
T1 construct: domain: IgV domain; not shown: human IgG1 Fc
T1 sequence (looked up): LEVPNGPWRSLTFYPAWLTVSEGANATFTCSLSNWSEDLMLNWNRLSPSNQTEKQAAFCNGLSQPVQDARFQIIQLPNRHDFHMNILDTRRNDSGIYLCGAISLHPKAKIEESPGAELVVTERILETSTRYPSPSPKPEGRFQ
Description: blocking ELISA, mPD-1 to PD-L1. Background: ELISA stands for enzyme-linked immunosorbent assay.

Assay [2] deals with T2, hPD1 (soluble, ELISA of Example 20) (human, UniProt Q15116 25-167, limits assumed). In words: ELISA, hPD1.
The target in assay [3] is T3, mPD1 (soluble, ELISA of Examples 20 and 24) (mouse, UniProt Q02242 25-167, limits assumed).
T3 construct: also called Biotin-mPD1
T3 sequence (looked up): T1 sequence (looked up)
Description: ELISA, mPD1.

Assay [4] concerns the target T4, human PD-1 expressed on cells (human, UniProt Q15116 25-288). Description: cell-based or functional assay.
Assay [5] concerns the target T5, mouse PD-1 expressed on cells (mouse, UniProt Q02242 25-288).
T5 sequence (looked up): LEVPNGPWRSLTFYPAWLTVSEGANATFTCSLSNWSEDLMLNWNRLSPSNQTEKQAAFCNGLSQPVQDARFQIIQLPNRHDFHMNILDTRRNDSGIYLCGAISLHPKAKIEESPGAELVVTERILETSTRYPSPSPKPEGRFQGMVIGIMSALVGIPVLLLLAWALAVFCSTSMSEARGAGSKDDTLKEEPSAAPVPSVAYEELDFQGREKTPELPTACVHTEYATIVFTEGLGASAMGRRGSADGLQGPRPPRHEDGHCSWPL
Description: cell-based or functional assay.

For assay [6], the target named is T6, hPD-1-Fc (human, UniProt Q15116 25-167).
T6 construct: domain: IgV domain; also called human PD-1-Fc; not shown: human IgG1 Fc
In words: SPR Biacore, hPD1-Fc.

Assay [7] deals with T1, mPD-1-Fc. In words: SPR Biacore, mPD1-Fc. On the technique in general: Surface plasmon resonance follows binding to a sensor surface in real time, without labels.
The target in another assay is T7, mPD-1-his (mouse, UniProt Q02242 25-167, limits assumed).
T7 construct: domain: IgV domain
T7 sequence: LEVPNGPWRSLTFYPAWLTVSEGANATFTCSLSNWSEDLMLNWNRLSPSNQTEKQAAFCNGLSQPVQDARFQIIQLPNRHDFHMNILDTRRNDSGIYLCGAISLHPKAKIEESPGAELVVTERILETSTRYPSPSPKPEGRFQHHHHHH
In words: SPR Biacore, mPD1-his.

For assay [8], the target named is T2, hPD1 (soluble, ELISA of Example 20). Description: blocking ELISA, hPD1 to hPDL1.
Assay [9] concerns the target T3, mPD1 (soluble, ELISA of Examples 20 and …). In words: blocking ELISA, mPD1 to mPDL1.
The target of assay [10] is T4, human PD-1 expressed on cells. In words: flow cytometry, hPD1-293 cells.
The target in assay [11] is T5, mouse PD-1 expressed on cells. Description: flow cytometry, mPD1-293 cells.
Assay [12] shares this target. In words: flow cytometry, mPD1-eff cells. On the technique in general: In flow cytometry, cells or beads pass a laser one at a time.
The target of assay [13] is T3, mPD1 (soluble, ELISA of Examples 20 and …). In words: ELISA, biotin-mPD1 on streptavidin.
Assay [14] addresses T6, hPD-1-Fc. In words: SPR, Exp. 1.
The target in assay [15] is T8, hPD-1-his (human, UniProt Q15116 25-167).
T8 construct: domain: IgV domain; monomer in solution; biotin-labelled where captured by streptavidin; also called biotin-hPD-1-his
Description: SPR, Exp. 1.

Assay [16] addresses T6, hPD-1-Fc. In words: SPR, Exp. 2.
Assay [17] has as its target T8, hPD-1-his. Description: SPR, Exp. 2.
In assay [18] the target is T6, hPD-1-Fc. Description: SPR, Exp. 3.
For assay [19], the target named is T8, hPD-1-his. Description: SPR, Exp. 3.
Assay [20] deals with T8, hPD-1-his. Description: SPR, Exp. 4.
Assay [21] addresses T6, hPD-1-Fc. In words: ELISA, hPD1-Fc coated.
Assay [22] concerns the target T6, hPD-1-Fc. In words: ELISA, PD-1-Fc coated.
Assay [23] addresses T4, human PD-1 expressed on cells. Description: cell-based or functional assay. This is another data set of the same source.
Assay [24] concerns the target T8, hPD-1-his. In words: ELISA, PD-1-his on anti-his.
The target in assay [25] is T6, hPD-1-Fc. Description: SPR, range over experiments.
Assay [26] deals with T8, hPD-1-his. Description: ELISA, hPD-1-his on anti-his.
Assay [27] has as its target T6, hPD-1-Fc. Description: blocking ELISA, PD-1 to PD-L1.
For assay [28], the target named is T6, hPD-1-Fc. In words: blocking ELISA, PD-1 to PD-L2.
The target of assay [29] is T4, human PD-1 expressed on cells. In words: flow cytometry, hPD1-293 cells. This is another data set of the same source.
Assay [30] has the same target. In words: flow cytometry, hPD-1-293 cells.
Assay [31] has the same target. Description: flow cytometry, hPD1-Jurkat cells.
Assay [32] shares this target. In words: flow cytometry, hPD-1-Jurkat cells.
In assay [33] the target is T6, hPD-1-Fc. Description: blocking ELISA, hPD-1-Fc to hPD-L1-Fc.
In assay [34] the target is T6, hPD-1-Fc. Description: SPR Biacore T200, PD-1-Fc immobilised.
For assay [35], the target named is T8, hPD-1-his. In words: SPR Biacore T200, PD-1-his immobilised.
Assay [36] concerns the target T8, hPD-1-his. In words: ELISA, biotin-PD-1-his on streptavidin.
Assay [37] concerns the target T8, hPD-1-his. In words: ELISA, biotin-hPD-1-his on streptavidin.
Assay [38] deals with T4, human PD-1 expressed on cells. In words: flow cytometry, activated PBMC donor FA.
For assay [39] the target is unchanged. In words: flow cytometry, activated PBMC donor two.
For assay [40] the target is unchanged. Description: flow cytometry, SEB-activated PBMC donor.
Assay [41] has the same target. In words: flow cytometry, SEB-activated PBMC donor two.

Where only a bound is given, the exact number is not on record here.

One may read the IC50 as the concentration at which inhibition is half-maximal. The term EC50 denotes the concentration that produces a half-maximal response. Higher therefore signals a less potent agent. Usually Kd stands for the constant that tells how readily two partners part at equilibrium. Read a high Kd as a looser complex. As a reminder, the koff is the rate constant with which the complex falls apart. Lower therefore signals slow dissociation. One may read the kon as the rate constant with which the complex forms.

T4 sequence (Q15116 25-288): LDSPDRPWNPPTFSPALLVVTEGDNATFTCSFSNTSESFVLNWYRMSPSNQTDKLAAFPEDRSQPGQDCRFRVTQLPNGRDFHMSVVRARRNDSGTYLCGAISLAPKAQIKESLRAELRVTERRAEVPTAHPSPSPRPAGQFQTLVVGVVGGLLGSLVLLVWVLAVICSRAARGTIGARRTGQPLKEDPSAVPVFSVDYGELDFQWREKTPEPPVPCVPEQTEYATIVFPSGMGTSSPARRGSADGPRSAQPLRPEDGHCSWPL
T8 sequence (Q15116 other isoform, or with tags, fused parts or gaps limits assumed): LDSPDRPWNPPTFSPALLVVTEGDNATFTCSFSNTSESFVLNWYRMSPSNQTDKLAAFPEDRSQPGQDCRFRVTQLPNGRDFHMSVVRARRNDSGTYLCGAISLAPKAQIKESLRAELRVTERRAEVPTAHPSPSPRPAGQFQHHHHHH
T6 sequence (Q15116 25-167 limits assumed): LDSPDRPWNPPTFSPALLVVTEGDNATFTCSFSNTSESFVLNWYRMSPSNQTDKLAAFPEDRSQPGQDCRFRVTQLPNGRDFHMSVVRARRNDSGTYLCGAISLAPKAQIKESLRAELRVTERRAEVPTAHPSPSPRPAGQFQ
T2 sequence (Q15116 25-167 limits assumed): as above

B1: RMP1-14 (antibody, V domains shown)
VH: EVQLQESGPGLVKPSQSLSLTCSVTGYSITSSYRWNWIRKFPGNRLEWMGYINSAGISNYNPSLKRRISITRDTSKNQFFLQVNSVTTEDAATYYCARSDNMGTTPFTYWGQGTLVTVSS
VL: DIVMTQGTLPNPVPSGESVSITCRSSKSLLYSDGKTYLNWYLQRPGQSPQLLIYWMSTRASGVSDRFSGSGSGTDFTLKISGVEAEDVGIYYCQQGLEFPTFGGGTKLELK
B1 displayed an IC50 with mPD-1-Fc [1] of 0.635 nM.

B2: m2C1 (antibody, V domains shown)
VH: QVQLVQSGAEVKKPGASVKVSCKASGHTFTSYYIHWVRQAPGQGLEWMGIINPSGGSTSYAQKFQGRVTMTRDTSTSTVYMELSSLRSEDTAVYYCARDRAYGGAGDYWGQGTLVTVSS
VL: DIQMTQSPSSLSASVGDRVTITCRASRSISSWLAWYQQKPGKAPKLLIYAASSLQSGVPSRFSGSGSGTDFTLTISSLQPEDFATYYCQQSYSIPATFGQGTKVEIK
notes: R3A9 derivative; also called m3CM (apparent misprint)
Turning to B2, the EC50 in [2] turned out to be 0.149 nM; in assay [3], 0.572 nM; in assay [10], 1.26 nM; in assay [11] it was 0.411 nM; in [12], 0.373 nM; in assay [13], 0.291 nM. In addition, the figures for the “IC50, Promega blockade bioassay” value in assay [4] and in assay [5] were 31.2 nM and 1.13 nM, respectively. The values for the dissociation constant (Kd) with hPD-1-Fc [6], with mPD-1-Fc [7] and with mPD-1-his were 2.81 nM, 2.91 nM and 3.22 nM, respectively. Further, the figures for the koff with hPD-1-Fc [6], with mPD-1-Fc [7] and with mPD-1-his were 0.000355 s⁻¹, 0.000583 s⁻¹ and 0.000693 s⁻¹, respectively. Besides, the on-rate (kon) with hPD-1-Fc [6] is 126000 M⁻¹ s⁻¹; in the assay with mPD-1-Fc [7] it was 200000 M⁻¹ s⁻¹; with mPD-1-his it was 215000 M⁻¹ s⁻¹. The IC50 in assay [8] is 5.71 nM; in [9], 0.464 nM.

B3: 33C4 (antibody, V domains shown)
VH: QVQLVQSGAEVKKPGSSVKVSCKASGGTFSSSVISWVRQAPGQGLEWMGGIIPIFGTANYAQKFQGRVTITADESTSTAYMELSSLRSEDTAVYYCAREGLGCSGGSCYSGYYYGMDVWGQGTTVTVSS
VL: DIVMTQSPLSLPVTPGEPASISCRSSQSLLHSNGYNYLDWYLQKPGQSPQLLIYEASSLHTGVPDRFSGSGSGTDFTLKISRVEAEDVGVYYCMQGSHWPYTFGQGTKLEIK
notes: also called 780_39
In the case of B3, the Kd with hPD-1-Fc [14] was less than 0.022 nM; with hPD-1-his [15] it was 0.704 nM; in the assay with hPD-1-Fc [16], less than 0.01 nM; with hPD-1-his [17] it was 0.205 nM; in the assay with hPD-1-Fc [18], less than 0.01 nM; with hPD-1-his [19] it was 0.274 nM. The Kd was less than 0.054 nM in the assay with hPD-1-his [20], 0.01 to 0.02 nM with hPD-1-Fc [25], 0.575 nM with hPD-1-Fc [34] and 6.73 nM with hPD-1-his [35]. The EC50 in the assay with hPD-1-Fc [21] amounted to 0.177 nM; with hPD-1-Fc [22], 0.128 nM; in the assay with hPD-1-his [24], 0.142 nM; in the assay with hPD-1-his [26], 0.061 nM; in assay [29] it was 0.075 nM; in assay [31], 0.084 nM. Moreover, the EC50 with hPD-1-his [36] is 0.131 nM; with hPD-1-his [37], 0.209 nM; in [38], 0.041 nM; in assay [39], 0.05 nM. In addition, the “OD450 at 10 nM” value is 0.925 OD450 in the assay with hPD-1-Fc [21], 0.578 OD450 with hPD-1-his [26] and 0.95 OD450 with hPD-1-his [37]. Moreover, the “EC50, Promega blockade bioassay” value in assay [23] was 0.165 mg/L. The molecule further had a Fold induction in [23] of 6.24 fold. Further, the IC50 with hPD-1-Fc [27] is 2.77 nM; with hPD-1-Fc [28], 3.3 nM; with hPD-1-Fc [33], 2.06 nM. The “Inhibition % at 50 nM” value in the assay with hPD-1-Fc [27] came out at 93.3%; in the assay with hPD-1-Fc [33] it was 92.5%. The “Inhibition, % at 5.56 nM” value in the assay with hPD-1-Fc [27] turned out to be 88.9%. Besides, the “Inhibition, % at 3.7 nM” value in the assay with hPD-1-Fc [28] amounted to 53.4%. Also, the “Inhibition, % at 100 nM” value with hPD-1-Fc [28] is 94.6%. The “MFI at 5 nM” value in [29] amounted to 48.2 MFI; in [31], 98.3 MFI. The “MFI, 5 nM” value in [30] was 179 MFI; in assay [32] it was 65.2 MFI; in assay [40], 77.8 MFI; in assay [41], 66.9 MFI. The “Inhibition % at 5.6 nM” value in the assay with hPD-1-Fc [33] was found to be 91.2%. Besides, the “MFI at 25 nM” value in assay [38] turned out to be 17.6 MFI; in [39], 18.7 MFI.

The values are drawn from patent US20230416363A1 (KADMON, published 2023).
